The record followed here is patent US20150351390A1, “COMPOSITIONS AND METHODS FOR AUXIN-ANALOG CONJUGATION” (PIONEER HI-BRED INTERNATIONAL, INC., priority 2012, published 2015).

The nature of series [1]: LC-MS assay of GH3 conjugation of IAA with Asp or Glu. It is filed as biochemical. The following applies: for kcat (hrs−1) IAA-Asp: conjugation of IAA with Asp by recombinant GH3 protein, IAA-Asp product by LC-MS; for kcat (hrs−1) IAA-Glu: conjugation of IAA with Glu by recombinant GH3 protein, IAA-Glu product by LC-MS. In a few lines: (§1)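 N-terminal His-tagged GH3 homologs, expressed in E. coli C41(DE3) and Ni-NTA purified, at 44 to 164 μg/mL incubated 3 h at 30 °C in 20 mM Tris-HCl pH 8.0, 5 mM MgCl2, 1 mM DTT, 5 mM ATP, 5 mM auxin (IAA, 2,4-D or dicamba) and 5 mM Asp or Glu. Conjugates quantified by LC-MS against standards after MeOH precipitation; kinetics from Michaelis-Menten fits of initial velocities.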

A short description of series [2]: LC-MS assay of GH3 conjugation of 2,4-D with Asp or Glu. It is filed as biochemical. Conditions: 5 mM 2,4-D substrate; for kcat (hrs−1) 2,4-D-Asp: conjugation of 2,4-D with Asp by recombinant GH3 protein, 2,4-D-Asp product by LC-MS; for kcat (hrs−1) 2,4-D-Glu: conjugation of 2,4-D with Glu by recombinant GH3 protein, 2,4-D-Glu product by LC-MS. In a few lines:
as §1

B1: ZmACL54563: GH3 protein, accession ACL54563 (protein)
chain: MPEAPVVTMRDTAAAAPPATHRDLLEYIERVTAGAAQVQRRVLSEILAQNAPAEYLRRLGVSGAAPGAVEAFRRAAPLVTYEDILPDVLRIANGDTSPILSGKPIREFLTSSGTSGGERKLMPAIADEMDRRSLLYSLLMPVMSQAVPGLDRGRCMYLYFVKAGSRTPGGHPARPVLTSFYRSRHFLERPHDPYTVHTSPDEAVLCVDAYQSMYAQLLCGLVHRADVLRVGAVFASGFLRAIRFLEKHWQRLCRDLRRGALGAEVTDRSVRAAVARVLRADPALADAVEAECARPSWQGIIRRVWPGTKYIDVIVTGAMAQYIPTLEFYGGGLPLTCTMYASSESYFGINLNPMCKPSEVAYTLIPTMCYFEFLPLPQPGPGGTDDADPDHRDLVDLVDVKLGHEYELVVTTYSGLYRYRVGDVLRVAGFKNQAPMFKFLRRKNVVLSIDSDKTDEAELHAAVSGAVQHLAPFGASLVEYTSYADAGTIPGHYVLFWELRLRAGDVPVPVPASVFEDCCLAVEEALNSVYRQGRAADRSIGPLEIRVVSDGTFDRLMDYALARGASINQYKVPRCVHPGPVVELLDGRVQASYVSPKCPKWSPGGGKQWSSDAAAKKPAAAAGSNNGGGAVVA
modifications: Zea mays
Regarding B1, in series [1], the “kcat (hrs−1) IAA-Asp” value stood at 522.629 h⁻¹ and the “kcat (hrs−1) IAA-Glu” value is 26.015 h⁻¹. Moreover, in series [2], the “kcat (hrs−1) 2,4-D-Asp” value was determined as 3.255 h⁻¹ and the “kcat (hrs−1) 2,4-D-Glu” value turned out to be 0.993 h⁻¹.

B2: ZmACI46148: GH3 protein, accession ACI46148 (protein)
chain: MAVMAEVVSTTGAALRSPASQPLPAAVKNADAEKLQFIEEMTSNVDAVQERVLGEILARNAGTEYLAKYGLAAATTDRATFRAKVPMATYEDLQPYIRRIADGDRSPILSGHPVSEFLTSSGTSAGERKLMPTIEDELNRRQLLYSLQMPVMNLYVPGMDKGKALHFLFVKSETKTPGGLAARPVLTSYYKSNHFKNRPFDAYNNYTSPTAAILCADAFQSMYAQMLCGLCQRQDVLRVGAVFASGLLRAIRFLQLNWEQLAEDIEAGSLTPRVTDPSVREAVAGILRADPELAALVRSECSKGDWAGIITRIWPSTKYLDVIVTGAMAQYIPTLKYYSGGLPMACTMYASSECYFGLNLRPMCDPSEVSYTLMPNMCYFEFLPMDSAAASGGDASKLVDLARVEVGREYELVITTYAGLNRYRVGDVLQVTGFHNTAPQFRFVRRKNVLLSIESDKTDEAELQRAVERASALLRPHGAAVVEYTSQAYTKSIPGHYVIYWELLAKGPAGGAAVGEGTLERCCLEMEEALNTVYRQSRVADGSIGPLEIRVVRPGTFEELMDYAISRGASINQYKVPRCVTFPPIIELLDSRVVSSHFSPALPHWTPGQRSDSD
modifications: Zea mays
B2: in series [1], the “kcat (hrs−1) IAA-Asp” value came out at 869.016 h⁻¹ and the “kcat (hrs−1) IAA-Glu” value came out at 49.496 h⁻¹. Besides, in series [2], the “kcat (hrs−1) 2,4-D-Asp” value came to 2.278 h⁻¹ and the “kcat (hrs−1) 2,4-D-Glu” value came to 0.401 h⁻¹.

B3: ZmACN32133: GH3 protein, accession ACN32133 (protein)
chain: MAPTTATAAAVGTKATALGVAACERDVEKLEFIEDKTRNFDAEQVRVLAEILARNNGAEYLRRHGMEGRTDRLAFKACVPVVTYEDLRPEIERIANGDRSNIISSHPITEFLTSSGTSAGERKLMPTIEDELNRRQMLYSLLMPVMNLYVPGLDKGKGLYFLFIKSETKTPGGLPARPVLTSYYKSDHFKHRPYDPYNVYTSPTAAILCTDSFQSMYSQMLCGLVARAEVLRVGAVFASGLLRAIRFLQLHWQELAHDLRTGTLSAKVTEPSIREAVAEVLRPDAGLADLVEAECGKESWEGIITRVWPNTKYLDVIVTGAMAQYIPTLKYYSGGLPMACTMYASSECYFGLNLRPMCDPSEVSYTIMPNMGYFELLPHDPDAVPPSRDDPPPRLLDLADAEVGRDYELVITTYAGLCRYRVGDILHVTGFHNAAPQFRFVRRKNVLLSVDSDKTDEAELQAAVERAARLLAPYDAAIAEYTSQADATTIPGHYVVYWELMVREGGASPDAAVFERCCLEMEEALNAVYRQGRNGDAIGPLEIRVVRGGTFEEVMDYAISRGASINQYKAPRCVSFGPIIELLNSRVVSSHFSPACPTYSPHKK
modifications: Zea mays
As to B3, in series [1], the “kcat (hrs−1) IAA-Asp” value was found to be 876.059 h⁻¹ and the “kcat (hrs−1) IAA-Glu” value worked out at 83.547 h⁻¹. Also, in series [2], the “kcat (hrs−1) 2,4-D-Asp” value came out at 0.602 h⁻¹ and the “kcat (hrs−1) 2,4-D-Glu” value is 0.241 h⁻¹.

B4: SbEES01578: GH3 protein, accession EES01578 (protein)
chain: MPEAPTTKTTLPAGGFGPGAHREALEFIEHVTANAGKVQRRVLAEILTQNAPAEYLRRYGVPGGSADAVEAFRRVVPLVTYEGLQPDILRIASGDTSPILSGKPISEFLTSSGTSGGERKLMPTIADELDRRSLLYSLQMPVMSQSVPGLDKGKAMYLLFVKAESRTPGGLVARPVLTSYYRSRQFLERPHDPYTEYTSPNEAILCVDSYQSMYTQLLCGLVHRADVLRVGAVFASGFLRAVRFLEKHWPRLCRDIRTGTLDPEITDRAVRDAVVGRVLRGANPALADEIEAECAGPSWEGIIRRLWPRTKYIDVIVTGAMSQYIPTLEFYGGGLPLACTMYASSECYFGLNLKPMCKPGDVAYTLIPTMCYFEFLPLQCSDGKAEPSHRDLVGLVDVKLGHEYELVVTTYSGLYRYRVGDVLRVAGFKNEAPMFKFIRRQNVALSIDSDKTDETELHAAVSGAVQHLAPFGASLVEYTSYADAATIPGHYVLFWELRAGSTAVPASVFEDCCLSVEEALNSVYRQCRACDKSIGPLEIRVVSEGTFDKLMDYAISRGASINQYKAPRCVRPGPVVELLDARVQAKYFSPKCPKWSPGNKQWNAASNGDA
modifications: Sorghum bicolor
Regarding B4, in series [1], the “kcat (hrs−1) IAA-Asp” value turned out to be 4419.692 h⁻¹ and the “kcat (hrs−1) IAA-Glu” value was 162.572 h⁻¹. Further, in series [2], the “kcat (hrs−1) 2,4-D-Asp” value turned out to be 0.765 h⁻¹ and the “kcat (hrs−1) 2,4-D-Glu” value was 0.250 h⁻¹.

B5: ZmACI46149: GH3 protein, accession ACI46149 (protein)
chain: MAVMAEVVSTTGAALRSPASQQPAAAGAAKGTDAEKLQFIEDMTSNVDAVQERVLGEILARNADTEYLAGRCGLAGATDRATFRAKVPMATYEDLQPYIRRIADGDRSPILSGHPVSEFLTSSGTSGGERKLMPTIEDELNRRQLLYSLQMPVMNLYVPGMDKGKALHFLFVKSETKTPGGLAARPVLTSYYKSNHFRNRPFDAYNNYTSPTAAILCADAFQSMYAQMVCGLCQRQDVLRVGAVFASGLLRAIRFLQLNWEQLADDIEAGSLTPRVTDPSVREAVAGILRPDPAVAELVRSECSGGDWAGIVTRIWPNTKYLDVIVTGAMAQYIPTLKHYSGGLPMACTMYASSECYFGLNLRPMCDPSEVSYTLMPNMCYFEFLPMGGAVDASQLVDLARVERGREYELVITTYAGLNRYRVGDVLQVTGFHNSAPQFRFVRRKNVLLSIESDKTDEAELQRAVERASALLRPHGAAVVEYTSQAYTKSIPGHYVVYWELLQAKGGAAVDGETLEGCCLEMEEALNAVYRQSRVADGSIGPLEIRVVRPGTFEELMDYAISRGASINQYKVPRCVTFPPIIELLDSRVVSSHLSPALPHWTAGQRSDSD
modifications: Zea mays
Take B5: in series [1], the “kcat (hrs−1) IAA-Asp” value worked out at 684.072 h⁻¹ and the “kcat (hrs−1) IAA-Glu” value is 26.467 h⁻¹. Further, in series [2], the “kcat (hrs−1) 2,4-D-Asp” value came out at 2.892 h⁻¹ and the “kcat (hrs−1) 2,4-D-Glu” value is 0.355 h⁻¹.

B6: ZmACL52529: GH3 protein, accession ACL52529 (protein)
chain: MSTSHARVKSDSNNGRTRTCDDGGSSGTSGGERKLMPAIADEMDRRSLLYSLLMPVMSQAVPGLDRGRCMYLYFVKAESRTPGGHPARPVLTSFYRSRHFLERPHDPYTVHTSPDEAVLCVDAYQSMYAQLLCGLVHRADVLRVGAVFASGFLRAIRFLEKHWQRLCRDLRRGALGAEVTDRSVRAAVARVLRADPALADAVEAECARPSWQGIIRRVWPGTKYIDVIVTGAMAQYIPTLEFYGGGLPLTCTMYASSESYFGINLNPMCKPSEVAYTLIPTMCYFEFLPLPQPGPGGTDDADPDHRDLVDLVDVKLGHEYELVVTTYSGLYRYRVGDVLRVAGFKNQAPMFKFLRRKNVVLSIDSDKTDEAELHAAVSGAVQHLAPFGASLVEYTSYADAGTIPGHYVLFWELRLRAGDVPVPVPASVFEDCCLAVEEALNSVYRQGRAADRSIGPLEIRVVSDGTFDRLMDYALARGASINQYKVPRCVHPGPVVELLDGRVQASYVSPKCPKWSPGGGKQWSSDAAAKKPAAAAGSNNGGGAVVA
modifications: Zea mays
In the case of B6, in series [1], the “kcat (hrs−1) IAA-Asp” value was determined as 0.000 h⁻¹ and the “kcat (hrs−1) IAA-Glu” value worked out at 2.149 h⁻¹. In series [2], the “kcat (hrs−1) 2,4-D-Asp” value was 0.000 h⁻¹ and the “kcat (hrs−1) 2,4-D-Glu” value is 0.000 h⁻¹.

B7: SbEES19769: GH3 protein, accession EES19769 (protein)
chain: MPEAPVTTMREAATAAAAAAVPETHRELLEYIERVTAGAAQVQRRVLAEILAQNAPAEYLRRLGVAGDAPGAVDAFRRAAPLVTYEDILPDVLRIANGDTSPILSGKPIREFLTSSGTSGGERKLMPAIADEMDRRSLLYSLLMPVMSQAVPGLDKGKCMYLYFVKAESRTPGGHPARPVLTSFYRSRHFLERPHDPYTVYTSPDEAILCVDAYQSMYAQLLCGLVHRADVLRVGAVFASGFLRAIRFLEKHWQRLCRDIRTGTLDAEAVTDRAVRAAVEQRVLLRADPALADAVEAECARTSWQGIIRRVWPNTKYIDVIVTGAMAQYIPQLEFYGGGLPLTCTMYASSESYFGINLNPMCKPSEVAYTLIPTMCYFEFLPLPQPGDDDAGEPDQRDLVDLVDVKLGHEYELVVTTYSGLYRYRVGDVLRVAGFKNQAPMFNFLRRKNVVLSIDADKTDEAELHAAVSGAVQHLAPFGASLVEYTSYADAGTIPGHYVLFWELRLRAAAAAGATPTPVPASVFEDCCLAVEEALNSVYRQGRAADRSIGPLEIRVVSDGTFDKLMDYALARGASINQYKAPRCVRPGPVVELLDGRVQASYFSPKCPKWSPGVGKQWSSDAAAAAKKAAAGGSNGGGGGGGAVVVA
modifications: Sorghum bicolor
Consider B7, for which, in series [1], the “kcat (hrs−1) IAA-Asp” value is 903.124 h⁻¹ and the “kcat (hrs−1) IAA-Glu” value is 50.990 h⁻¹. In series [2], the “kcat (hrs−1) 2,4-D-Asp” value was 18.287 h⁻¹ and the “kcat (hrs−1) 2,4-D-Glu” value is 4.970 h⁻¹.
